The results in this text go back to publication PMC12364711.

The target of this assay is superGmFLS2, C-terminal mEGFP (soybean (Glycine max)).

In turn, “NbBAK1 (BRASSINOSTEROID … 1-ASSOCIATED KINASE 1 of Nicotiana benthamiana), C-terminal 4xHA (receptor)” registered a total flg22^Rso-induced ROS production in N. benthamiana fls2 leaves, against wild-type GmFLS2b of more than 3 fold.
